Measured values published in patent US20170137511A1 (CALYPSO BIOTECH, published 2017).
Where a chain is given by its changes, count along the chain named.

Tests used:
[1] = biological target: T1, recombinant human IL-15 (R&D systems cat. no. 247-IL) (human, UniProt P40933 49-162); assay: cell-based or functional assay
[2] = biological target: T1, recombinant human IL-15 (R&D systems …); assay: cell-based or functional assay; remark: listed apart in the source
[3] = biological target: T2, recombinant human IL-15 (Prospec cat no. CYT230) (human, UniProt P40933 49-162); assay: ELISA, plate-bound human IL-15; printed as BC50 (half-maximal binding concentration)
T2 sequence (P40933 other isoform, or with tags, fused parts or gaps): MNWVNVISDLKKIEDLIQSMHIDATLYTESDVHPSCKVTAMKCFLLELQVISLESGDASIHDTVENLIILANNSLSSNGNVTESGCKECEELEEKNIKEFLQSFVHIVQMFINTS
Method: (§1) Maxisorp plates were coated with recombinant human IL-15 (Prospec cat no. CYT230) or Rhesus macaque IL-15 (MyBiosource cat. no. MBS948894) at 100 ng/well in carbonate coating buffer for 2 hours at 37° C. Since published sequences of Rhesus macaque and Cynomolgus monkey IL-15 are identical, such recombinant IL-15 protein was referred to as Macaque Monkey IL-15. Tested human IL-15 recombinant protein has a sequence identical to that provided in SEQ ID NO: 1 but with an additional methionine at the N-terminal position as usually done for expressing recombinant proteins in E. Coli. Tested recombinant Macaque Monkey IL-15 was produced in yeast and has a sequence identical to that provided in SEQ ID NO: 4 but with an additional N-terminal His tag.
(§2) The plate was then blocked with 2% normal goat serum for 30 min at 37° C. and washed 6 times with PBS-Tween (0.05% Tween-20 in PBS, v/v). Test antibodies were added to the plate in triplicate at various dilutions in PBS-Tween and the plate was incubated with gentle rocking at room temperature for 2 hours. The plate was then washed 6 times with PBS-Tween and an appropriate dilution of goat anti-human IgG antibody (Millipore cat. no. AP309P) conjugated to horseradish peroxidase (HRP) was added to the plate and left rocking at room temperature for 1 hour. The plate was then washed 6 times with PBS-Tween and incubated with TMB substrate. The reaction was stopped by the addition of 1M H₂SO₄ and read at 450 nm. Dose response curves of absorbance versus concentration were plotted and analyzed to determine half-maximal binding concentrations (BC₅₀) using the Graphpad Prism software. BC₅₀ values expressed as molarity were extrapolated from concentration in ng/ml using a 150 kDa molecular weight value for all antibodies.

[4] = biological target: T3, recombinant Macaque Monkey IL-15 (MyBiosource cat. no. MBS948894) (Rhesus macaque / Cynomolgus monkey, UniProt P40221 49-162 (Chlorocebus aethiops entry)); assay: ELISA, plate-bound Macaque Monkey IL-15; printed as BC50 (half-maximal binding concentration)
T3 construct: Produced in yeast; also called Rhesus macaque IL-15; recombinant monkey IL-15; not shown: additional N-terminal His tag
T3 sequence (P40221 49-162): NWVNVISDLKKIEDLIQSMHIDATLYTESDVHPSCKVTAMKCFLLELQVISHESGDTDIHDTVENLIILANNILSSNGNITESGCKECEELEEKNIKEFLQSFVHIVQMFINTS
Method: as §1, §2

[5] = biological target: T2, recombinant human IL-15 (Prospec cat …); assay: SPR (Biacore 3000), human IL-15 amine-coupled to the chip, antibody injected, 1:1 Langmuir fit
Method: Human IL-15 (Prospec cat no. CYT230) was immobilized onto a CMS chip (GE Healthcare) using standard amine coupling, and antibodies injected at various concentrations in 120 μl phosphate buffer saline with a flow rate of […]. Binding kinetics were analyzed on a Biacore 3000 apparatus (GE Healthcare) with a 300 seconds dissociation period. Reference signal and 0 nM antibody concentration signal were substracted and data fitted using a 1:1 (Langmuir) binding model.

[6] = biological target: T2, recombinant human IL-15 (Prospec cat …); assay: ELISA, plate-bound recombinant human IL-15 (100 ng/well), HRP goat anti-human IgG, absorbance at 450 nm
Method: as §1
The plate was then blocked with 2% normal goat serum for 30 min at 37° C. and washed 6 times with PBS-Tween (0.05% Tween-20 in PBS, v/v). […] The reaction was stopped by the addition of 1M H₂SO₄ and read at 450 nm. Dose response curves of absorbance versus concentration were plotted and analyzed to determine half-maximal binding concentrations (BC₅₀) using the Graphpad Prism software. BC₅₀ values expressed as molarity were extrapolated from concentration in ng/ml using a 150 kDa molecular weight value for all antibodies.

[7] = biological target: T4, human IL-15 (preparation not stated) (human, UniProt P40933 49-162, limits assumed); assay: ELISA
T4 construct: also called recombinant IL-15; recombinant human IL-15
T4 sequence (P40933 49-162 limits assumed): as the sequence (P40221 49-162) above, with H52L, T57A, D58S, I73S, I80V counted along it

[8] = biological target: T4, human IL-15 (preparation not stated); assay: ELISA; the weaker binders of the comparison
[9] = biological target: recombinant human IL-2 (R&D Systems cat. no. 202-IL-010) (human, UniProt P60568 21-153); assay: ELISA, plate-bound recombinant human IL-2 (100 ng/well), HRP goat anti-human IgG, absorbance at 450 nm
Chain of recombinant human IL-2 (R&D Systems cat. no. 202-IL-010) (P60568 21-153 limits assumed): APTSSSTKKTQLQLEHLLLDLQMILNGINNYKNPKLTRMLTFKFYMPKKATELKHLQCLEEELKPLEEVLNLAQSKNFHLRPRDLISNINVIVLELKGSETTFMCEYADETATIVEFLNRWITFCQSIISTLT
Method: Maxisorp plates were coated with recombinant human IL-2 (R&D Systems cat. no. 202-IL-010) of SEQ ID NO: 38 at 100 ng/well in carbonate coating buffer for 2 hours at 37° C. The plate was then blocked with 2% normal goat serum for 30 min at 37° C. and washed 4 times with PBS-Tween (0.05% Tween-20 in PBS, v/v). Test antibodies or positive control biotinylated antibody (anti-IL-2 Novus Bio cat. no. NBP1-43491) were added to the plate in duplicate at 5 μg/ml in PBS-Tween and the plate was incubated with gentle rocking at room temperature for 2 hours. The plate was then washed 4 times with PBS-Tween and an appropriate dilution of goat anti-human IgG antibody (Millipore cat. no. AP309P) conjugated to horseradish peroxidase (HRP) for test antibodies, or streptavidin-HRP for positive control antibody, was added to the plate and left rocking at room temperature for 1 hour. The plate was then washed 4 times with PBS-Tween and incubated with TMB (3,3′,5,5′-tetramethylbenzidine) substrate. The reaction was stopped by the addition of 1 M H₂SO₄ and read at 450 nm.

[10] = biological target: T3, recombinant Macaque Monkey IL-15 …; assay: cell-based or functional assay
[11] = biological target: T5, recombinant rat IL-15 (Sigma cat. no. SRP4172) (rat, UniProt P97604 49-162); assay: ELISA, plate-bound recombinant rat IL-15 (100 ng/well), HRP goat anti-human IgG, absorbance at 450 nm
T5 sequence: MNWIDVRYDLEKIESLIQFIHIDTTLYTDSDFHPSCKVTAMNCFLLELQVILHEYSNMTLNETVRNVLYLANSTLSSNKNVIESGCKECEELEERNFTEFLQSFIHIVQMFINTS
Method: (§3) Maxisorp plates were coated with recombinant mouse IL-15 (R&D Systems cat. no. 447-ML) or rat IL-15 (Sigma cat. no. SRP4172) at 100 ng/well in carbonate coating buffer for 2 hours at 37° C. Tested IL-15 recombinant proteins have a sequence identical to that provided in SEQ ID NO: 2 (mouse IL-15) and SEQ ID NO: 3 (rat IL-15) but with an additional methionine at the N-terminal position as usually done for expressing recombinant proteins in E. Coli.
(§4) The plate was then blocked with 2% normal goat serum for 30 min at 37° C. and washed 6 times with PBS-Tween (0.05% Tween-20 in PBS, v/v). Test antibodies were added to the plate in triplicate at various dilutions in PBS-Tween and the plate was incubated with gentle rocking at room temperature for 2 hours. As positive controls, rabbit-anti-mouse IL-15 (Acris cat. no. AP01124PU-S) or rabbit anti-rat IL-15 (Biovision cat. no. 5172) antibodies were tested at the same concentrations. The plate was then washed 6 times with PBS-Tween and an appropriate dilution of HRP-conjugated goat anti-human IgG antibody (Millipore cat. no. AP309P) for humanized antibodies, or goat-anti-rabbit IgG antibody (Sigma cat. no. A 4416) for the positive controls was added and the plate was left rocking at room temperature for 1 hour. The plate was then washed 6 times with PBS-Tween and incubated with TMB substrate. The reaction was stopped by the addition of 1M H₂SO₄ and read at 450 nm. Dose response curves of absorbance versus concentration were plotted using the Graphpad Prism software.

[12] = biological target: T6, recombinant mouse IL-15 (R&D Systems cat. no. 447-ML) (mouse, UniProt P48346 49-162); assay: ELISA, plate-bound recombinant mouse IL-15 (100 ng/well), HRP goat anti-human IgG, absorbance at 450 nm
T6 sequence: T5 sequence with F19S, I82A, R95K, N96T, H106R
Method: as §3, §4

T1 sequence (P40933 49-162 limits assumed): as the sequence (P40221 49-162) above, with H52L, T57A, D58S, I73S, I80V counted along it

B1: 146B7 (comparative antibody 2) (antibody, V domains shown)
VH: EVQLVQSGAEVKKPGESLKISCKVSGYFFTTYWIGWVRQMPGKGLEYMGIIYPGDSDTRYSPSFQGQVTISADKSISTAYLQWSSLKASDTAMYYCARGGNWNCFDYWGQGTLVTVSS
VL: EIVLTQSPGTLSLSPGERATLSCRASQSVSSSYLAWYQQKPGQAPRLLIYGASRRATGIPDRFSGSGSGTDFTLTISRLEPEDFAVYYCQRYGSSHTFGQGTKLEIS
notes: Fully human antibody of the prior art (WO 03/017935), 'produced in the same expression system'; also called AMG 714; HuMaxIL-15
- IC50 in Kit 225 cells (nM), Human IL-15 [1]: 3.7 nM
- IC50 in M-07e cells (nM), Human IL-15 [1]: 3.2 nM
- IC50 in M07e cells for IL-15 trans presentation [2]: 630 pM
- EC50 [3]: 8410 pM
- EC50 [4]: 733 pM
- Kd [5]: 36.7 pM
- koff [5]: 5.26e-05 s⁻¹
- kon [5]: 1.44e+06 M⁻¹ s⁻¹
- EC50 (read off the curve) [6]: ~0.8 µg/mL

B2: cVH1:cVK1 (antibody, human IgG1, kappa, V domains shown)
VH: EVRLMASGGGLVKPGGSLKLSCAASEFTFSNYAMSWVRQTPEKRLEWVATISRGGDYTYYPDSVKGRFTISRDNAKNTLYLQMSSLRSEDTALYYCARRVSMITGGWAMDYWGQGTSVTVSS
VL: DVLMTQTPLSLPVSLGDQASISCRSSQSIVDITGNTYLEWYLQKPGQSPKLLIYKVFNRFSGVPDRFSGSGSGTDFTLKISRVEAEDLGLYYCFQDSFVPYTFGGGTKLEIKR
notes: Mouse B-E29 variable regions on human IgG1 (G1m3) / kappa (Km3); also called chimeric B-E29
- binding result [7]: binds

B3: hVH1:hVK2 (antibody, human IgG1, kappa, V domains shown)
VH: B2 VH with K13Q, K19R, T40A, E42G, R44G, A75S, S84N, S88A, L93V, S117L
VL: EVVMTQSPATLSLSPGERATLSCRSSQSIVDITGNTYLEWYQQKPGQAPRLLIYKVFNRFSGIPARFSGSGSGTDFTLTISSLEPEDFAVYYCFQDSFVPYTFGQGTKLEIKR
notes: Human IgG1 (G1m3) / kappa (Km3)
- binding result [8]: binds

B4: cVH1:hVK2 (antibody, human IgG1, kappa, V domains shown)
VH: B2 VH
VL: B3 VL
notes: as for B3
- binding result [8]: binds

B5: cVH1:hVK1 (antibody, human IgG1, kappa, V domains shown)
VH: B2 VH
VL: DVVMTQSPLSLPVTLGQPASISCRSSQSIVDITGNTYLEWYQQRPGQSPRLLIYKVFNRFSGVPDRFSGSGSGTDFTLKISRVEAEDVGVYYCFQDSFVPYTFGQGTKLEIKR
notes: as for B3
- binding result [7]: binds

B6: hVH1:cVK1 (antibody, human IgG1, kappa, V domains shown)
VH: B2 VH with K13Q, K19R, T40A, E42G, R44G, A75S, S84N, S88A, L93V, S117L
VL: B2 VL
notes: as for B3
- binding result [7]: binds

B7: huB-E29-1 (antibody, human IgG1, kappa)
heavy: not shown
light: DVVMTQSPLSLPVTLGQPASISCRSSQSIVDITGNTYLEWYQQRPGQSPRLLIYKVFNRFSGVPDRFSGSGSGTDFTLKISRVEAEDVGVYYCFQDSFVPYTFGQGTKLEIKRTVAAPSVFIFPPSDEQLKSGTASVVCLLNNFYPREAKVQWKVDNALQSGNSQESVTEQDSKDSTYSLSSTLTLSKADYEKHKVYACEVTHQGLSSPVTKSFNRGEC
notes: Humanized B-E29 variant; human IgG1 (G1m3) / kappa (Km3), produced in CHO cells; also called huVH1/huVL1; hVH1:hVK1
- EC50 [3]: 1330 pM
- EC50 [4]: 487 pM
- EC50 (read off the curve) [6]: ~0.2 µg/mL

B8: huB-E29-4 (antibody, human IgG1, kappa, V domains shown)
VH: B2 VH with K13Q, K19R, T40A, E42G, R44G, A75S, S84N, S88A, L93V, S117L
VL: B5 VL with Y41F
notes: Humanized B-E29 variant; human IgG1 (G1m3) / kappa (Km3), produced in CHO cells; also called huVH1/huVL2
- EC50 [3]: 1010 pM
- EC50 [4]: 500 pM
- binding result [9]: no binding (tested: 5 µg/ml)

B9: huB-E29-10 (antibody, human IgG1, kappa, V domains shown)
VH: EVRLMASGGGLVQPGGSLRLSCAASEFTFSNYAMSWVRQAPGKGLEWVATISRGGDYTYYPDTVKGRFTISRDNSKNTLYLQMNSLRAEDTAVYYCARRVSMITGGYAMDYWGQGTLVTVSS
VL: B5 VL
notes: Humanized B-E29 variant; human IgG1 (G1m3) / kappa (Km3), produced in CHO cells; also called huVH8/huVL1
- IC50 in Kit 225 cells (nM), Macaque Monkey IL-15 [10]: 17.5 nM
- IC50 in M-07e cells (nM), Macaque Monkey IL-15 [10]: 41.3 nM
- IC50 in Kit 225 cells (nM), Human IL-15 [1]: 17 nM
- IC50 in M-07e cells (nM), Human IL-15 [1]: 4.2 nM
- IC50 in M07e cells for IL-15 trans presentation [2]: 530 pM
- EC50 [3]: 507 pM
- EC50 [4]: 353 pM
- Kd [5]: 295 pM
- koff [5]: 0.000423 s⁻¹
- kon [5]: 1.43e+06 M⁻¹ s⁻¹
- binding result [11]: no binding (tested: log 3.7 (about 5000 ng/mL))
- binding result [9]: no binding (tested: 5 µg/ml)
- binding result [12]: no binding (tested: log 3.7 (about 5000 ng/mL))
